Laboratory results published in patent publication US10100120B2, “Antibody which specifically binds to human CRTH2” (KYOWA HAKKO KIRIN CO., LTD, priority 2015, dated 2018).

Tests used:
Type in all cases: cell-based
[1] = tested on: human eosinophils; assay: Antagonist activity using shape change of human eosinophils as index (Example 19); conditions: DKPGD2 0.1-1000 nM, FIG. 16
Procedure: Eosinophils were separated from human peripheral blood in the same manner as in Example 11. The isolated human eosinophils were suspended with Dulbecco's phosphate buffered saline (hereinafter, referred to as D-PBS (−)) (NACALAI TESQUE, Inc.) and performed a reaction in a 5% CO2 incubator at 37° C. for 1 hour and 30 minutes. Thereafter, the cells were seeded in a 96-well plate at 2×10^5 cells/well using 10% FBS-containing RPMI1640. Next, an isotype control antibody [CELL LAB Rat IgG2b Isotype Control (Beckman Coulter Inc.)] at a final concentration of 10 μg/mL or Lym2 antibody; or small molecular CRTH2 antagonist 00000459 (Cayman Chemical) at a final concentration of 10 μM as a positive control, was added thereto to cause a reaction in a 5% CO2 incubator at 37° C. for 30 minutes.
Next, DKPGD2 (Cayman Chemical) at each of final concentrations of 0.1, 1, 10, 100, and 1000 nM was added thereto to cause a reaction in a 5% CO2 incubator at 37° C. for 60 minutes. After the reaction, the cells were washed twice with ice-cold PBS, Fixation Buffer (BD Biosciences) was added at 200 μL/well, and the resultant was suspended well and allowed to stand at 4° C. for 30 minutes. After that, the cells were washed twice with SM, and shape change of eosinophils was analyzed by flow cytometry (BD Biosciences, FACS CantoII).
The shape change of eosinophils was analyzed based on an increase in Forward Scatter Light (FSC) plot which is an index of the cell size, the cell surface area, or the cell diameter in the analysis using flow cytometry and the percentage (%) of eosinophils detected in the gate of high FSC was calculated based on the FSC of DKPGD2-untreated eosinophils.

[2] = tested on: human basophils; assay: Basophil depletion (cytotoxic) activity in human peripheral blood cells, flow cytometry; conditions: Example 8; 0.01-1000 ng/mL, 37° C., 20 hours; FIG. 3
Procedure: (§1) Human peripheral blood collected by adding a heparin sodium injection liquid was centrifuged at 4° C. and 1500 rpm for 30 minutes, and the plasma was recovered.
(§2) After the plasma was recovered, PBS (NACALAI TESQUE, Inc.) was added to the pellet containing the red blood up to the original volume of blood and the pellet was suspended. Next, to 1 mL of the suspension, 10 mL of hemolyzing solution [solution obtained by diluting 10×RBC Lysis buffer (eBioscience) 10 times with sterile water] was added to be mixed by inversion. The resultant was allowed to stand at room temperature for 10 minutes and centrifuged at room temperature and 1500 rpm for 5 minutes and washed twice with PBS after the supernatant was removed therefrom.
(§3) Thereafter, the cell pellet was suspended with the recovered plasma and the cells were seeded in a 48-well plate at 300 μL/well, each of chLym2, humanized Lym2 antibodies LV0HV0, LV0HV1, and LV0HV2a, or an isotype control antibody [IgG1 antibody prepared according to the method described in Example 5 using a vector encoding an anti-2,4-dinitrophenol (DNP) IgG1 antibody described in Clin Cancer Res 2005, 11(8), 3126 to 3135 (hereinafter, referred to as anti-DNP IgG1 antibody)] were added at each final concentrations of 1000, 100, 33, 11, 3.7, 1.2, 0.4, and 0.01 ng/mL to cause a reaction in a 5% CO2 incubator at 37° C. for 20 hours.
(§4) After the reaction, the cell fluid in each well was recovered, 10 mL of SM was added thereto, 200 μL per sample of CountBright Absolute Counting Beads, for flow cytometry (Molecular Probes) was added as control beads, and the fluid was centrifuged at 4° C. and 2000 rpm for 10 minutes, and then the supernatant was removed. The resultant was washed twice with SM, 10000 μg/mL of IgG from human serum (Sigma-Aldrich Co. LLC) diluted with SM was added at 300 μL/sample and suspended to cause a reaction at 4° C. for 30 minutes. […]
(§5) The cells were washed twice with SM, suspended by SM containing 1% of 7-AAD Staining Solution (BD Biosciences), allowed to stand at 4° C. for 10 minutes, and the fluorescent intensity was analyzed by flow cytometry (BD Biosciences, FACS CantoII).
(§6) Human eosinophils were detected as 7-AAD negative siglec8-PE positive fractions in granulocyte fractions of FSC-SSC deployment. Human basophils were detected as 7-AAD negative fractions, CD123-PC-Cy7 positive fractions, FcεRI-APC positive fractions in lymphocyte fractions of FSC-SSC deployment. The cell depletion activity was evaluated by analyzing the count number of each cell per a certain number of CountBright. […]

[3] = tested on: human eosinophils; assay: Eosinophil depletion (cytotoxic) activity in human peripheral blood cells, flow cytometry; conditions: Example 8; 0.01-1000 ng/mL, 37° C., 20 hours; FIG. 3
Procedure: as §1, §2, §3, §4, §5, §6

Row | Molecule | shape change of eosinophils induced by ligand ([1]; 37° C., 60 minutes) | inhibition of DKPGD2-dependent shape change of eosinophils (antagonist activity) ([1]; antibody 10 μg/mL or small molecule 10 μM) | cytotoxic activity against basophils [2] | cytotoxic activity against eosinophils [3]
1 | CCCCCC(=O)CC[C@H]1C(=O)C[C@H](O)[C@@H]1C/C=C\CCCC(=O)O [DKPGD2, 13, 14-dihydro-15-keto prostaglandin D2] | induced shape change of eosinophils in a concentration-dependent manner | – | – | –
2 | Cc1c(Cc2ccc3ccccc3n2)c2cc(F)ccc2n1CC(=O)O [OC000459] | – | inhibited | – | –
3 | LV0HV0: humanized Lym2 antibody, VL LV0 (SEQ ID NO: 33), VH HV0 (SEQ ID NO: 49) (antibody, V domains shown) VH: EVQLVESGGGVVQPGRSLRLSCAASGFTFSNYYMAWVRQAPGKGLEWVATISYDGSSTYYRDSVKGRFTISRDNAKNSLYLQMNSLRAEDTAVYYCARHRGYYYSGAGYFDYWGQGTMVTVSS VL: DIVMTQTPLSLPVTPGESASISCRSSQSLEYSDGYTYLEWYLQKPGQSPQVLIYGVSNRFSGVPDRFSGSGSGTDFTLKISRVEAEDVGVYYCFQATHDPLTFGQGTKLEIK | – | – | comparable to the chimeric Lym2 antibody chLym2 | comparable to the chimeric Lym2 antibody chLym2
4 | LV0HV2a: humanized Lym2 antibody, VL LV0 (SEQ ID NO: 33), VH HV2a (SEQ ID NO: 53) (antibody, V domains shown) VH: EVQLVESGGGVVQPGRSLRLSCAASGFTFSNYYMAWVRQAPGKGLEWVATISYDGSSTYYRDSVKGRFTISRDNAKNSLYLQMNSLRAEDTATYYCARHRGYYYSGAGYFDYWGQGVMVTVSS VL: DIVMTQTPLSLPVTPGESASISCRSSQSLEYSDGYTYLEWYLQKPGQSPQVLIYGVSNRFSGVPDRFSGSGSGTDFTLKISRVEAEDVGVYYCFQATHDPLTFGQGTKLEIK | – | – | comparable to the chimeric Lym2 antibody chLym2 | comparable to the chimeric Lym2 antibody chLym2
